From the nanobody polyreactivity screen of Harvey et al. (2022)

assay: yeast display, Sf9 membrane polyspecificity reagent, FACS + sequencing; frameworks hold sequencing errors
Procedure, shortened: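 A nanobody's polyreactivity label depends on the gate it was sorted from. Yeast display cells were stained with 10% biotinylated, detergent-solubilized Sf9 membrane reagent for 1 hour at 4 °C, enriched on streptavidin microbeads and sorted by FACS. The low and high (top ~1%) gates were set on anti-HA fluorescence for expression and streptavidin fluorescence for reagent binding.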

Sequence	polyreactivity (PSR sort gate)
QVQLVESGGGLVQAGGSLRLSCAASGRTFGWYTMGRYRQAPGKEREMVAGISSSGGSTYYADSVKGRFTISRDNAKNTVYLQMNSMKPEDTAVYYFARETYPHGLYYRPYDYWGQGTQVTVSS	low polyreactivity
QVQLVESGGGLVQAGGSLRLSCAASGRTFGYNAMGWYRQAPGKEREFVAAISGSGGRTYYADSVKGRFTISRDNAKNTVYLQMNSQKPEDTAVYYCAAGFGDGPGNGYYTRYSWDDDYWGQGTQVTVSS	low polyreactivity
QVQLVESGGGLVQAGGSLRLSCAASGRTFGYNAMGWYRQAPGKERELVAAITSGGGTKYADSVKGRFTISRDNAKNTVYLQMNSLKPEDTAVYYCAATYLYEWSRFVYDGLYYWGQGTQVTVSS	low polyreactivity
QVQLVESGGGLVQAGGSLRLSCAASGRTFGYNAMGWYRQAPGKERELVATISSSTVSTSYADSVKGRFTISRDNAKNTVYLQMNSLKPEDPAVYYCNARSRVSPTERVPYDSWGQGTQVTVSS	low polyreactivity
QVQLVESGGGLVQAGGSLRLSCAASGRTFGYNAMGWYRQAPGTERELVAAIRTIGDSTYYADSVKGRFTISRDNAKNTVYLQMNILKPVDTSVYYCAARKLRSRFDYWGQGTQVTVSS	high polyreactivity
QVQLVESGGGLVQAGGSLRLSCAASGRTFGYNGMGWYRQAPGKERELVAAINSGGNTNYADSVKGRFTISRDNAKNTVYLQMNSLKPEDTSVYYCAKYGTLYEPVPNEYDYWGQGTQVTVSS	low polyreactivity
QVQLVESGGGLVQAGGSLRLSCAASGRTFGYNTMGWYRQAPGKERELVARITWSGASTYYADSVKGRFTISRDNAKNTVYLQMNSLKPEDTAVYYCNTAYTVSWRSPYDYWGQGTQVTVSS	high polyreactivity
QVQLVESGGGLVQAGGSLRLSCAASGRTFGYNTMGWYRQAPGKERELVATISRGGSTYYADSVKGRFTISRDNAKNTVYLQMNSLKPEDTAVYYCRYQSRFRYDYWGQGTQVTVSS	high polyreactivity
QVQLVESGGGLVQAGGSLRLSCAASGRTFGYNTMGWYRQQPGKEREFVAAINYSGGSTYYADSVKGRFTISRDYGKNTVYLQMNSLKPEDTAVYYCNAKPRWYVPYDYWGQGTQVTVSS	high polyreactivity
QVQLVESGGGLVQAGGSLRLSCAASGRTFGYNVMGWYRQAPGKARELVAGIRYSGGSTYYADSVKGRFTISRDNAKNTVYLQMNSLKPEDTAVYYCHAVDRNQYDYWGQGTQVTVSS	high polyreactivity
QVQLVESGGGLVQAGGSLRLSCAASGRTFGYYAMGWYRKAPGKERELVAAISWRGTSTYYADSVKGRFTISRDNAKNTVYLQMNSLKPEDTAVYYCAVGRTVAHRFIAGDYWGQGTQVTVSS	high polyreactivity
QVQLVESGGGLVQAGGSLRLSCAASGRTFGYYAMGWYRQAPGKEREFVAAISHSAGSTSYADSVKGRFTISRDNAKNTVYLQMNSLKPEDTAVYYCAADNPWYEMDYWGQGTQVTVSS	low polyreactivity
QVQLVESGGGLVQAGGSLRLSCAASGRTFGYYAMGWYRQAPGKERELVAAISSSGGSTYYADSVKGRFTISRDNAKNTVYLQMNSLKPEDTAVYYCAARFANGGGYWGQGTQVTVSS	high polyreactivity
QVQLVESGGGLVQAGGSLRLSCAASGRTFGYYAMGWYRQAPGKERELVATITFGGGSTYYADSVKGRFTISRDNAKNTVYLQMNSLKPEDTAVYYCAADTSVHSEVDYWGQGTQVTVSS	low polyreactivity
QVQLVESGGGLVQAGGSLRLSCAASGRTFGYYAMGWYRQAPGQERELVAAISSGGGTYYADSVKGRFTISRDNAKNTVYVQMNSLKPEDTAVYYCAATGWVYWGQFDYWGEGTQVTVSS	low polyreactivity
QVQLVESGGGLVQAGGSLRLSCAASGRTFGYYAMGWYRQATGKERELVAAISWSDSGTYYADSVKGRFTISRDNAKNTVYLQMNSLKPEDTAVYYCAKDEPYFVFRDTYDYWGQGTQVTVSS	high polyreactivity
QVQLVESGGGLVQAGGSLRLSCAASGRTFGYYTMGWYRQAPGKERELVAAITSSGGSTYYADSVKGRFTISRDNAKNTVYLQMNSLKPEDTAVDYCAARAAYYFLYSAMYYWGQGTQVTVSS	high polyreactivity
QVQLVESGGGLVQAGGSLRLSCAASGRTFGYYTMGWYRQAPGKERELVAAITWSGSTYYADSVKGRFTISRDNAKNTVYLQMNSLKPEDTAVYYCAVEIYYFVYGISYDYWGQGTQVTVSS	high polyreactivity
QVQLVESGGGLVQAGGSLRLSCAASGRTFGYYTMGWYRQAPGKEWELVATITRGGTTKYADSVKGRFTISRDNAKNTVYLQMNSLKPEDTAVYYCNARERGSRQYTFDYWGQGTQVTVSS	high polyreactivity
QVQLVESGGGLVQAGGSLRLSCAASGRTFGYYVMGWSRQAPGKETELVAAISNTDSTYYADSVKGRFTISRDNAKNTVYLQMNSLKPEDTAVYYCARDDAYSDFDYDYWGQGTQVTVSS	low polyreactivity
QVQLVESGGGLVQAGGSLRLSCAASGRTFHIYAMGWYRQAPGKERELVAAIRGRSGSTYYADSVKGRFTISRDNAKNTVYLQLNSLKPEDTAVYYCAVGRYPYGSARYRFDYWGQGTQVTVSS	high polyreactivity
QVQLVESGGGLVQAGGSLRLSCAASGRTFHNYAMGWYRQAPGKEREFVAVITGSGGRTYYADSVKGRFTISRDNAKNTVYLQMNSLKPEDTAVYYCNRVSRYYLYDYWGQGTQVTVSS	high polyreactivity

Sequence	polyreactivity (PSR sort gate)
QVQLVESGGGLVQAGGSLRLSCAASGRTFHPYAMGWYRQAPGKERELVAAITISTNYADSVKGRFTISRDNAKNTVSLQMNSVKPEDTAVYYCNADFVRPSWARGRNNGLYYWGQGTQVTVSS	low polyreactivity
QVQLVESGGGLVQAGGSLRLSCAASGRTFHPYAMGWYRQAPGKERELVAAITSIGGSTFYADSVKGRFTISRDNAKNNVYLQLTSLKPEDTAVYFCNAESSYYYGTAAYEYWGQGTQVSVSS	low polyreactivity
QVQLVESGGGLVQAGGSLRLSCAASGRTFHRYVMGWYRQAPGKERELVAAITRSGGITYYADSVKGRFTISRDNAKNTVYLQMNSLKPEDTAVYYCAKDDQTASGFDYWGQGTQVTVSS	low polyreactivity
QVQLVESGGGLVQAGGSLRLSCAASGRTFHSYAMGWYRQAPGKERELVAAITSSGGSTYYADSVKGRFTISRDNAKNTVYLQMNSLKPEDTAVYYGNAYVRYGYGYYYWGQGTQVTVSS	high polyreactivity
QVQLVESGGGLVQAGGSLRLSCAASGRTFHWYTLGWYRQAPGKEREFVAGINWSGARTYYADSVKGRFTISRDNAKNTVYLQMNSLKPEDTAVYYCNKRDRYRLYGYNYWGQGTQVTVSS	high polyreactivity
QVQLVESGGGLVQAGGSLRLSCAASGRTFHYYTMGWYRQAPGKERELVAAISQSGGRTYYADSVKGRFTISRDNAKNTVYLQMNSLKPEDTAVYYCAAVSWRVISDYRIVGYDYWGQGTQVTVSS	low polyreactivity
QVQLVESGGGLVQAGGSLRLSCAASGRTFIANAMGWYRQAPGKERELVAVITLNGGSTYYADSVKGRFTISRDNAKNTVYLQMNSLKPEDTAVYYCAAGRYYKLRATHGYWGQGTQVTVSS	low polyreactivity
QVQLVESGGGLVQAGGSLRLSCAASGRTFIGYAMGWYRQAPGKERELVATISVSGGSTYYADSVKGRFTISRDNAKNTVYLQMNSLKPEDTAVYYCAKAYLRFYDGPYDYWGQGTQVTVSS	low polyreactivity
QVQLVESGGGLVQAGGSLRLSCAASGRTFIINTMGWYRQAPGKERELVAAISKNGATTNYADSVKGRFTISSDNAKNSVYLQMNSLKPEDTAVYYCNARYSGYLRLDYWGQGTQVTVSS	low polyreactivity
QVQLVESGGGLVQAGGSLRLSCAASGRTFILNAMGWYRQAPGKERELVAAISWSGGSTYYADSVKGRFTISRDNAKNTVYLQMNCLKPEDTAVYYCAKRYVDPLGSGTHGSWGQGTQVTVSS	low polyreactivity
QVQLVESGGGLVQAGGSLRLSCAASGRTFIPYAMGWYRQAPGKERELVAAITSSGGRTYYADSVKGRFTISRDNAKNTVYLQMNSLKPEDTAVYYCNKYARGYDMDYWGQGTQVTVSS	high polyreactivity
QVQLVESGGGLVQAGGSLRLSCAASGRTFIPYAMGWYRQAPGKERELVATIRRGGSTYYADSVKGSFTISRDNAKNTVYLQMNSLKPEDTAVYYCAATRYSFGPRRVDYWGQGTQVSVSS	high polyreactivity
QVQLVESGGGLVQAGGSLRLSCAASGRTFISYAMGWYRQAPGKERELVAAISSSGGSTYYADSVKGRFTISRDNAKNTVYLQMNSLIPEDTAVYYCNADSSASTYTFPFDYWGQGTQVTVSS	low polyreactivity
QVQLVESGGGLVQAGGSLRLSCAASGRTFISYAMGWYRQAPGKERELVAGISRGGSTYYADSVKGRFTISRDNAMNTVYLQMNRLKPEDTAVYYCAARRWISSHSYKYGYWGQGTQVTVSS	high polyreactivity
QVQLVESGGGLVQAGGSLRLSCAASGRTFITNAMGRNRQAPGKERELVARISSDGSTYYADSVKGRFTISRDNAKNTVYLQMNSLKPEDTAVYYCNKEFLRRQLFTFWHLGGYWGQVTQVTVSS	low polyreactivity
QVQLVESGGGLVQAGGSLRLSCAASGRTFITYAMGWYRQAPGKERELVAAISWNGGTTYYADSVKGRFTISRDNAKNTVYLQMNSLKPEDTAVYYCAAYRWYSAARMGYWGQGTQVTVSS	high polyreactivity
QVQLVESGGGLVQAGGSLRLSCAASGRTFIYYAMGWSRQAPGKERELVAGISRNGGRTYYADSVKGRFTISRDNAKNTVYLQMNSLKPEDTAVYYCNAYPPSRHDYLGQGTQVTVSS	high polyreactivity
QVQLVESGGGLVQAGGSLRLSCAASGRTFIYYAMGWYRQAPGKERELVARIRANGVSTYYADSVKGRFTISRDNAKNTVYLQMNSLKPEDTAVYYCAKGYFPSQYEYWGQGTQVTVSS	high polyreactivity
QVQLVESGGGLVQAGGSLRLSCAASGRTFKAYAMGWYRQAPGKERELVAAITYSGGSTYYADSVKGRFTISRDNAKNTVYLQMNSLKPEDTAVYYCAASAQSRSRVKLYYWGQGTQVTVSS	high polyreactivity
QVQLVESGGGLVQAGGSLRLSCAASGRTFKDYAMGWYRQAPGKERELVAAISWSGGDTYYADSVKGRVTISRDNAKNTVYLQMNSLKPEDTAVYYCNADPSGVFFYSLEFDYWGQGTQVTVSS	low polyreactivity
QVQLVESGGGLVQAGGSLRLSCAASGRTFKHYAMGWYRPAPGKERELVAAITSGGSTYYADSVKGRFTISRDNAKNTVYLQMNSLKPEDTAVYYCNKESYFDTYRRYDSWGQGTQVTVSS	low polyreactivity
